What all share (test): cell_activity; attB x attP EGFP inversion reporter, HEK293FT
One data set addresses T1, Int34 (Staphylococcus lugdunensis HKU09-01).
T1 chain: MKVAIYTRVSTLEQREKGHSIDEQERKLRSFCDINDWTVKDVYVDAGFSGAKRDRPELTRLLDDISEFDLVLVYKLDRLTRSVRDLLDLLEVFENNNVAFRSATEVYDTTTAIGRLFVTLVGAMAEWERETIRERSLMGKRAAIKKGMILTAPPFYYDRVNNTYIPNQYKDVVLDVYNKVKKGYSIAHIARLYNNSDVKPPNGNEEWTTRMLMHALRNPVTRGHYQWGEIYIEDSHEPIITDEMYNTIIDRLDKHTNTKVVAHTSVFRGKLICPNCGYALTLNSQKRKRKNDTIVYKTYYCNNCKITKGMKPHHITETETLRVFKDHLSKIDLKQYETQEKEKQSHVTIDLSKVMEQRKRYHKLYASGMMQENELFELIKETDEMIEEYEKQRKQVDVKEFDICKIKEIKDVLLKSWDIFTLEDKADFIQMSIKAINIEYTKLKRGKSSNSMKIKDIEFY
The settings on record: tags: C-terminal GS linker-SV40 NLS; chain copies: 4.

Another data set has as its target T2, Int27 (Lactococcus lactis subsp. lactis CV56).
T2 chain: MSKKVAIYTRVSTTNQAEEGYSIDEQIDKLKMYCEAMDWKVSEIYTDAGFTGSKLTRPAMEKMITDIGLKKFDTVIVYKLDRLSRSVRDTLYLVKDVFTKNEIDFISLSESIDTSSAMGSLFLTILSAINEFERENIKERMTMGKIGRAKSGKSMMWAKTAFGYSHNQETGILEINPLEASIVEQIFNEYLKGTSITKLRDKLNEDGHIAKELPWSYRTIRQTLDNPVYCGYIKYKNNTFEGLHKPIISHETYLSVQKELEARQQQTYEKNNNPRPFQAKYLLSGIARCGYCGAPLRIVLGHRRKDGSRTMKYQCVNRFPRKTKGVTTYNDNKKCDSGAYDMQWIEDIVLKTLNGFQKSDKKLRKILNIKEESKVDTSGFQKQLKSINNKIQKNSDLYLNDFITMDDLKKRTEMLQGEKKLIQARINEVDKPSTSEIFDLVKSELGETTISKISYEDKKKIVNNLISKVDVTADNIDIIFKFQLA
The settings on record: tags: C-terminal GS linker-SV40 NLS.

Another data set concerns the target T3, Int7 (Geobacillus sp. Y412MC61).
T3 chain: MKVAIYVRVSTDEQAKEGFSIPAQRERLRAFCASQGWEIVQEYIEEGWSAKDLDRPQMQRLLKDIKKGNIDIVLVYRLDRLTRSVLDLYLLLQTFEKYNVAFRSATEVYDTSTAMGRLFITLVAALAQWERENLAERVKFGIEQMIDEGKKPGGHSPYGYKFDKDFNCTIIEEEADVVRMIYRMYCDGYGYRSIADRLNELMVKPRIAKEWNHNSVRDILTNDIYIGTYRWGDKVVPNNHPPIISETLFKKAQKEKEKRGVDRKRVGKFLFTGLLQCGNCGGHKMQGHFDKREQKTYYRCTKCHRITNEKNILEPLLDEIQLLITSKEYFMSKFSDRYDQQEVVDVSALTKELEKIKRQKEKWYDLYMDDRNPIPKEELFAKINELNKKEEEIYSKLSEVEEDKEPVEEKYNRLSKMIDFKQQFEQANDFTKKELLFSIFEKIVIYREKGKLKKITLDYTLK
The conditions noted are these: tags: C-terminal GS linker-SV40 NLS.

B1: Int34 attB (dsDNA)
DNA 1: AATCTGCAAACATGTATGGCGGTACATGTATCAACATTGGTTGTATTCCTACAAAGACACTCAT
DNA 2: ATGAGTGTCTTTGTAGGAATACAACCAATGTTGATACATGTACCGCCATACATGTTTGCAGATT
Take B1: the binding signal with Int34 is 0.408 fraction of Bxb1.

B2: Int34 attP (dsDNA)
DNA 1: ATTTTTGTACGGAAGTAGATACTATCTTTCAATATCCATGTTACTTAGTGCCATACAAAAA
DNA 2: TTTTTGTATGGCACTAAGTAACATGGATATTGAAAGATAGTATCTACTTCCGTACAAAAAT
For B2, the binding signal in the data set with Int34 was 0.408 fraction of Bxb1.

B3: Int27 attB (dsDNA)
DNA 1: AATACTAATAATAGCTAGTACAATTAACATCTCTATCAAAGTAAAAGCTTTTAGCTCTTTCT
DNA 2: AGAAAGAGCTAAAAGCTTTTACTTTGATAGAGATGTTAATTGTACTAGCTATTATTAGTATT
Consider B3, for which, in the data set with Int27, the binding signal was 2.2 fraction of Bxb1.

B4: Int7 attP (dsDNA)
DNA 1: GTGTTATAAACCTGTGTGAGAGTTAAGTTTACATGCCTAACCTTAACTTTTACGCAGGTTCAGCTT
DNA 2: AAGCTGAACCTGCGTAAAAGTTAAGGTTAGGCATGTAAACTTAACTCTCACACAGGTTTATAACAC
For B4, the binding signal in the data set with Int7 was 0.096 fraction of Bxb1.

B5: Int7 attB (dsDNA)
DNA 1: AGACGAGAAACGTTCCGTCCGTCTGGGTCAGTTGGGCAAAGTTGATGACCGGGTCGTCCGTT
DNA 2: AACGGACGACCCGGTCATCAACTTTGCCCAACTGACCCAGACGGACGGAACGTTTCTCGTCT
Regarding B5, the binding signal with Int7 was 0.096 fraction of Bxb1.

The values are drawn from patent US20240409906, “INTEGRASES, LANDING PAD ARCHITECTURES, AND ENGINEERED CELLS COMPRISING THE SAME” (Asimov Inc., published 2024).
